The nature of the data set: yeast display, Sf9 membrane polyspecificity reagent, FACS + sequencing; frameworks hold sequencing errors. In outline:
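Genes from sorted yeast were amplified by colony PCR, read by MiSeq 2 × 250 sequencing and filtered on CDR length. These cells carried a synthetic nanobody library in Saccharomyces cerevisiae BJ5465 and were sorted by FACS into low and high (top ~1%) gates on anti-HA and streptavidin fluorescence. Polyreactivity is labelled according to the gate of origin.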
“QVQLVESGGGLVQAGGSLRLSCAASGGTFYYNAMGWYRQAPGKERELVAAITSGDRTYYADSVKGRFTISRDNAKYTVYLQMNSLKPEDTAVYYCAARWFRSNKYWGQGTQVTVSS”: the “polyreactivity (PSR sort gate)” value is “high polyreactivity”.

Take “QVQLVESGGGLVQAGGSLRLSCAASGGTFYYYAMGWSRQAPGKERELVAAISTSGTSTYYADSVKGRFTISRDNAKNTVYLQMNSLKPEVTAVYYCAARGLRVSSRGYYWGQGTQLTVSS”: the “polyreactivity (PSR sort gate)” value is recorded as “high polyreactivity”.

Consider “QVQLVESGGGLVQAGGSLRLSCAASGGTIAGYAMGWYRHAPGKERELVASISDGGSTNYADSVKGRFTISRDNAKNTVYLQMNSLKPEDTAVYYCADLAYVPSYTYDYWGQGTQVTVSS”, for which the “polyreactivity (PSR sort gate)” value is given as “low polyreactivity”.

On to “QVQLVESGGGLVQAGGSLRLSCAASGGTIAYNAMGWYRQAPGKERELVAAISSSGGRTYYADSVKGRFTISRDNAKNTVYLQMNSLKPEDTAVYYCATPVTNGFDYWGQGTQVTVSS”, for which the “polyreactivity (PSR sort gate)” value is listed as “high polyreactivity”.

In the case of “QVQLVESGGGLVQAGGSLRLSCAASGGTILYYAMGWYRQAPGKEMELVAAISRGGSTHYADSVKWRFTISRDNAKNTVYLQMNRLKPEDTAVFYCAVDGGEFSSYGYWGHGTQVTVSS”, the “polyreactivity (PSR sort gate)” value was “low polyreactivity”.

Regarding “QVQLVESGGGLVQAGGSLRLSCAASGGTISYYAMGRYRQAPRKERELVAAINWSGASTYYADSVKGRFTNSRDNAKYTVYLELNSLKPEETAVYYCAADSIQYTARPYDYWGQGTQVTVSS”, the “polyreactivity (PSR sort gate)” value is listed as “low polyreactivity”.

“QVQLVESGGGLVQAGGSLRLSCAASGGTIVGYAMGWYRQAPGKERELVAAIDSSGGSTYYADSVKGRFTISRDNAKNTVYLQMNSLKPEDTAVYYCAALSTNYYISPYYYYNSKGYDYWGQGTQVTVSS”: the “polyreactivity (PSR sort gate)” value is given as “high polyreactivity”.

In the case of “QVQLVESGGGLVQAGGSLRLSCAASGGTIYDNTMGWYRQAPGKERELVAAISRDGSTNYADSVKGRFTISRDNAKNTVYLQMNSLKPEDTAVYYCNKDPVSEYRSPGFPVTYDYWGQGTQVTVSS”, the “polyreactivity (PSR sort gate)” value is “low polyreactivity”.

Take “QVQLVESGGGLVQAGGSLRLSCAASGGTLFTNAMGWYRQAPGKERELVAAISWRGGRTYYADSVKGRFTISRDNAKNTVYLQMNSLKPEDTAVYYCAAASAAGYDYWGQGTQVTVSS”: the “polyreactivity (PSR sort gate)” value is recorded as “low polyreactivity”.

For “QVQLVESGGGLVQAGGSLRLSCAASGGTLQGNAMGWYRPAPGKERELVAAISSRGGRTYYADSVKGRFTSSRDNAKNTVYLQMNSLKPEDTAVYYCNAEYPVYFEGYPYYWDYWGDSWGQGTQVTVSS”, the “polyreactivity (PSR sort gate)” value is “high polyreactivity”.

For the sequence “QVQLVESGGGLVQAGGSLRLSCAASGGTLQGNAMGWYRQAPGKERELVAAISSRGGRTYYADSVKGRFTISRDNAKNTVYLQMNSLKPEDTAVYYCAAVQKGDSTLLRTKGGYWGQGTQVTVSS”, the “polyreactivity (PSR sort gate)” value is “high polyreactivity”.

As for “QVQLVESGGGLVQAGGSLRLSCAASGGTLVRYAMGWYRQAPGKERELVAAIDRDGDSTYYADSVKGRFTISRDNAKNTVYLQMNSLKPEDTAVYYCNADEIRQTDGYDYWGQGTQVTVSS”, the “polyreactivity (PSR sort gate)” value is on record as “high polyreactivity”.

Turning to “QVQLVESGGGLVQAGGSLRLSCAASGGTLYTYAMGWYRQAPGKEWEFVAAITVSGGRTYYADSVKGRFTISRDNAKNTVYLLMNSLKPEDTAVYYCAARYWSWRSFKVDYWGQGTQVTVSS”, the “polyreactivity (PSR sort gate)” value is “high polyreactivity”.

On to “QVQLVESGGGLVQAGGSLRLSCAASGGTMLYYAMGWYRQAPRKEMELVAVITSSAGRTYYADSVKGRITISRDNAKITVYLLMNSLKPEDTAVSYCNATGYLVGSISIYDYWGQGTQVTVSS”, for which the “polyreactivity (PSR sort gate)” value was “low polyreactivity”.

Take “QVQLVESGGGLVQAGGSLRLSCAASGGTYHANAMGWYRQAPGKERELVAGITSGGSTYYADSVKGRFTISRDNAKNTVYLQMNSLKPEDTAVYYCNARYPLNIIRGFVWWTVGHDYWGQGTQVTVSS”: the “polyreactivity (PSR sort gate)” value was “low polyreactivity”.

Consider “QVQLVESGGGLVQAGGSLRLSCAASGGTYRVKAMGWYRQAPGKEREFVAAISGSGSSTYYADSVKGRFTISRDNAKNTVYLQMNSLKPEDTAVYYCAARSCVGGDNDYWGQGTQVTVSS”, for which the “polyreactivity (PSR sort gate)” value is recorded as “low polyreactivity”.

In the case of “QVQLVESGGGLVQAGGSLRLSCAASGHIFFYYTMGWYRQAPGKERELVAGITIGGSTNYADSVKGRFTISRDNAKNTVYLQMNSLKPEDTAVYYCNVVNYVYIYSYWEYYYWGQGTQVTVSS”, the “polyreactivity (PSR sort gate)” value is listed as “low polyreactivity”.

Take “QVQLVESGGGLVQAGGSLRLSCAASGHIFNYYAMGWYRQAPGKERELVAAIRSGARTSYADSVKGRFTISRDNAKNTVNLQMNSLKPEDTAVYYCAAVGVAYLYPSDYWGQGTQVPVSS”: the “polyreactivity (PSR sort gate)” value is “high polyreactivity”.

Regarding “QVQLVESGGGLVQAGGSLRLSCAASGHTFYYYTMGWYRQAPGKERELVASIRNGGNTNYADSVKGRFTISRDTAKNTVYLQMHSLKPEDTAVYYCAAVFGWSYITAYDWGQGTQVTVSS”, the “polyreactivity (PSR sort gate)” value is recorded as “high polyreactivity”.

As for “QVQLVESGGGLVQAGGSLRLSCAASGHTYRYYAMGWYRQAPGKERELVAAITGGGGSTYYADSVKGRFTISRDNAKNTVYLQMNSLKPEDTAVYYCATGGVSGIVGGDYWGQGTQVTVSS”, the “polyreactivity (PSR sort gate)” value is listed as “low polyreactivity”.

As to “QVQLVESGGGLVQAGGSLRLSCAASGIAYTYNAMGRYRQAPGKERELVASISRTGGSTRYADSVKGRFTISRDNAKYTVYLQMNSLKPEDTAVYYCAALSWRYVKYRFDYWGQGTQVTVSS”, the “polyreactivity (PSR sort gate)” value is “high polyreactivity”.

In the case of “QVQLVESGGGLVQAGGSLRLSCAASGIFASYAMGWYRQAPGKERELVAAIRSSGGRTYYADSVKGRFTISRDNAKNTFYLQMNSLKPEDTAVYYCAARYYTYDGYSKYDFWGQGTQVTVSS”, the “polyreactivity (PSR sort gate)” value is reported as “high polyreactivity”.

With “QVQLVESGGGLVQAGGSLRLSCAASGIFAWNAMGWYRQAPGKERELVAAISWSGGSTYADSVKGRFTISRDNAKNTVYLQMNSLKPEDTAVYYCAKVSSLTSKSDYWGQGTQVTVSS”, the “polyreactivity (PSR sort gate)” value is “low polyreactivity”.

“QVQLVESGGGLVQAGGSLRLSCAASGIFDPNAMGWYRQAPGKERELVAAITSGGSTNYADSVKGRFTISRDNAKNTVYLQMNSLKPVDTAVYYCNADSYDEIKYGYWGQGTQVTVSS”: the “polyreactivity (PSR sort gate)” value is on record as “low polyreactivity”.

Consider “QVQLVESGGGLVQAGGSLRLSCAASGIFDRYAMGWYRQAPGKERELVAAISYNAGSTYYADSVKGRFTISRDNAKNTVYLQMNSLKPEDTAVYYCAARGFGTVNGKLYGYWGQGTQVTVSS”, for which the “polyreactivity (PSR sort gate)” value is “high polyreactivity”.

Take “QVQLVESGGGLVQAGGSLRLSCAASGIFDYYVMGWYIQAPGKERELVAAISKSVGSTYYADSVKGRFTISRDNAKNTVYLQMNSLKPEDTAVYYCAVENRYRFGYWGQGTQVTVSS”: the “polyreactivity (PSR sort gate)” value is “low polyreactivity”.

As to “QVQLVESGGGLVQAGGSLRLSCAASGIFFQQYAMGWYRLAPGKERELVAAISRGGTRTYYADSVKGRFTISRDNAKNTGYLQMNSLKPEDTAVYYCAADRGYVSYDYWGQGTQVTVSS”, the “polyreactivity (PSR sort gate)” value is listed as “high polyreactivity”.

With “QVQLVESGGGLVQAGGSLRLSCAASGIFGGYAMGWYRQAPGKERELVAAIRYSSGSTYYADSVKGRFTISRDNAKNTVYLQMKSLKPEDTAVYYCAAEVVEAPDNDYWGQGTQVTVSS”, the “polyreactivity (PSR sort gate)” value is on record as “low polyreactivity”.

“QVQLVESGGGLVQAGGSLRLSCAASGIFGGYAMGWYRQAPGKERELVAAISYSGGTTYYADSVKGRFTISRDNAKNTVYLQMNSLKPEDTAVYYCNADDPDYLVSYRYDYWGQGTQVTVSS”: the “polyreactivity (PSR sort gate)” value is recorded as “low polyreactivity”.

Take “QVQLVESGGGLVQAGGSLRLSCAASGIFLVYAMGWYRQAPGKERELVAAIRSDASTNYADSVKGRFTISRDNAKNTVYLQMNILKPEDTAVYYCNTAQLVSDEFDYWGQGTQVTVSS”: the “polyreactivity (PSR sort gate)” value is listed as “low polyreactivity”.

“QVQLVESGGGLVQAGGSLRLSCAASGIFPWFAMGWYRQAPGKERELVAVITGGDSTNYADSVKGRFTISRDNAKNTVYLQMNSLKPEDTAVYYCAARNTGPVQYYYWGQGTQVTVSS”: the “polyreactivity (PSR sort gate)” value is “low polyreactivity”.

For “QVQLVESGGGLVQAGGSLRLSCAASGIFRSNAMGWYRQAPGKERELVAGISSGGGTNYADSVKGRFTISRDNAKNTVYLQMNSLKPDDTAVYYCAKERIYFYYWYVYTDLVYEYDYWGQGTQVTVSS”, the “polyreactivity (PSR sort gate)” value is given as “low polyreactivity”.

Consider “QVQLVESGGGLVQAGGSLRLSCAASGIFSYYAMGWYRQAPGKERELVATISRRGSSTYYADSVKGRFTISRDNAKNTVYLQMNSLKPEDTAVYYCNADIGWGRFSQSFDYWGQGTQVTVSS”, for which the “polyreactivity (PSR sort gate)” value is on record as “low polyreactivity”.

As for “QVQLVESGGGLVQAGGSLRLSCAASGIIFAGNAMGWYRQAPGKEREFVAAISYRGGTTYYADSVKGRFTISRDNAKNTVYLQMNSLKPEDTAVYYCAADPRSKGFYYGYDYWGQGTQGTVSS”, the “polyreactivity (PSR sort gate)” value is given as “high polyreactivity”.

On to “QVQLVESGGGLVQAGGSLRLSCAASGIIFAGNAMGWYRQAPGKERELVAAISSGTTTNYADSVKGRFTISRDNAKNTVYLQMNRLKPEDTAVYYCAADDFPYKSDYWGQGTHVTVSS”, for which the “polyreactivity (PSR sort gate)” value is reported as “low polyreactivity”.

Consider “QVQLVESGGGLVQAGGSLRLSCAASGIIFAHYAMGWYRQAPGKERELVAAISSSGATTYYADSVKGRFTISRDNAKNTVYFQMNSLKPEDTAVYYCNTETYHVRRLFDYWGQGTQVTVSS”, for which the “polyreactivity (PSR sort gate)” value was “low polyreactivity”.

“QVQLVESGGGLVQAGGSLRLSCAASGIIFALYAMGWYRQAPGKERELVATITYSGGSTYYADSVKGRFTISRDNAKNTVYLQMNSLKPEDSAVYYCNRDQWPWESGYAYNYWGQGTQVTVSS”: the “polyreactivity (PSR sort gate)” value is “low polyreactivity”.

As for “QVQLVESGGGLVQAGGSLRLSCAASGIIFATNGMGWYRQAPGKEREFVASSTNGGSTNYADSVKGRFTISRDNAKNTVYLQMNSLKPEDTAVYYCAAAASDDYDYPTEYEYWGQGTQVTVSS”, the “polyreactivity (PSR sort gate)” value was “high polyreactivity”.

Take “QVQLVESGGGLVQAGGSLRLSCAASGIIFAYYAMGWYRQAPGKERELVAAISWNSGYTYYADSVKGRFTISRDNAKNTVYLQMNSLKPEDSAVYYCAAESYYSYSYYRPYEYYYWGQGTQLTVSS”: the “polyreactivity (PSR sort gate)” value is listed as “high polyreactivity”.

As to “QVQLVESGGGLVQAGGSLRLSCAASGIIFAYYAMGWYRQAPGKERELVASITNTGSTYYADSVKGRFTISRDNAKNTVYLQMNSLKPEDTAVYFCNAVLSSNTKWRYPGDYLGQGTQVTVSS”, the “polyreactivity (PSR sort gate)” value is listed as “low polyreactivity”.

Regarding “QVQLVESGGGLVQAGGSLRLSCAASGIIFDDNAMGWYRQAPGKERELVAAISSGSTTNYADSVKGRFTISRDNEKNTVYLQMTSLKPEDTAVYYCAAVDGLAFDYWGQGTQVTVSS”, the “polyreactivity (PSR sort gate)” value is on record as “low polyreactivity”.

These data come from the nanobody polyreactivity screen of Harvey et al. (2022).
